From patent publication US20220073584A1 (AstraZeneca / MedImmune, published 2022)
Where a chain is given by its changes, count along the chain named. Ends that are not written are not given here.

T1: human RXFP1 receptor (human, UniProt Q9HBX9 1-757)
T1 sequence (looked up): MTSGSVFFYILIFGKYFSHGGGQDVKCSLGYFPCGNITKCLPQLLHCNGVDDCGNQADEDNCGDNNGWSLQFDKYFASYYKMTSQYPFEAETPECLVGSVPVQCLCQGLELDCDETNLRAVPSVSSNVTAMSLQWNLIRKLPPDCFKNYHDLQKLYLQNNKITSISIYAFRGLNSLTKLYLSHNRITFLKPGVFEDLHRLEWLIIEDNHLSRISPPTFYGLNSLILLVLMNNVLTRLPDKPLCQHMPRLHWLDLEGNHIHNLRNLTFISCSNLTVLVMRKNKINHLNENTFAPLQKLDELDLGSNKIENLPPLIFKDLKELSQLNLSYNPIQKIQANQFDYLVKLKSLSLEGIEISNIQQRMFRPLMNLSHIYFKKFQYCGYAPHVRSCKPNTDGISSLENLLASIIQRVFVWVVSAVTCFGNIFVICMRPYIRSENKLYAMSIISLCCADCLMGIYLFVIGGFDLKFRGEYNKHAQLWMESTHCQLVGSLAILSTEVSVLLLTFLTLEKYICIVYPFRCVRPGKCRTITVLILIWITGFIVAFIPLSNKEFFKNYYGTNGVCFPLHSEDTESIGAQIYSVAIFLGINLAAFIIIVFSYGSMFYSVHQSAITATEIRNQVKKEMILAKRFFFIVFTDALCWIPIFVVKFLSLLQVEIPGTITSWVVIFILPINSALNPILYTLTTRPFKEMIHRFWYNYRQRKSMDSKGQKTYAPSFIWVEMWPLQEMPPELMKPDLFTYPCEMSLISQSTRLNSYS

T2: mouse RXFP1 receptor (mouse, UniProt Q6R6I7 1-758)
T2 sequence (looked up): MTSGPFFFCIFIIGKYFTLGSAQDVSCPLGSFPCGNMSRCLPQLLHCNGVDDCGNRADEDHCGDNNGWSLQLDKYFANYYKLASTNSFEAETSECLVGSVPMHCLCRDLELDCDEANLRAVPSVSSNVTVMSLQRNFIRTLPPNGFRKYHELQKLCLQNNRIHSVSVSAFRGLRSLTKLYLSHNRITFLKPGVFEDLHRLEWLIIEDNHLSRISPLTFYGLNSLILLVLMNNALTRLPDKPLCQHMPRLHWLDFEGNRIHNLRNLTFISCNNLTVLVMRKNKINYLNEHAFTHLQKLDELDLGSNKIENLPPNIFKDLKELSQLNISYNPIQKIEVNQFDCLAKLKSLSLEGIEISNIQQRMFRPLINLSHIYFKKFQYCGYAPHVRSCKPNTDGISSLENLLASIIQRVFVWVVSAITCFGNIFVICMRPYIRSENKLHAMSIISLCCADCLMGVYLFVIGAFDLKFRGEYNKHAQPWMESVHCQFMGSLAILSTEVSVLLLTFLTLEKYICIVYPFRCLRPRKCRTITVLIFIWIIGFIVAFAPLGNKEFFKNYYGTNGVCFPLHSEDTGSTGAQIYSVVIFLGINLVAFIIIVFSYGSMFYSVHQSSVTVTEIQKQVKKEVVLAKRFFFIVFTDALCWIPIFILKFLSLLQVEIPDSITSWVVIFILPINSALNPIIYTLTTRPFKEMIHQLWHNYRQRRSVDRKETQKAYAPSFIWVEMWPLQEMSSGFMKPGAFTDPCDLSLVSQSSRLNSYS

B1: Fc-YTE-TM_hRLX2_15-15AA (Fc fusion)
chain: DKTHTCPPCPAPEFEGGPSVFLFPPKPKDTLYITREPEVTCVVVDVSHEDPEVKFNWYVDGVEVHNAKTKPREEQYNSTYRVVSVLTVLHQDWLNGKEYKCKVSNKALPASIEKTISKAKGQPREPQVYTLPPSRDELTKNQVSLTCLVKGFYPSDIAVEWESNGQPENNYKTTPPVLDSDGSFFLYSKLTVDKSRWQQGNVFSCSVMHEALHNHYTQKSLSLSPGKGGGGSGGGGSGGGGSQLYSALANKCCHVGCTKRSLARFCGGGGSGGGGSGGGGSSWMEEVIKLCGRELVRAQIAICGMSTWS
B2: Fc-YTE-FQQ_hRLX2_15-15AA (Fc fusion)
chain: B1 chain with E15Q, K102Q, S111P
B3: recombinant human Relaxin-2 (R&D Systems, catalogue number 6586-RN-025) (ligand)
chain 1: QLYSALANKCCHVGCTKRSLARFC
chain 2: DSWMEEVIKLCGRELVRAQIAICGMSTWS
modifications: not fully specified (bridges); ends and bridges not checked; also: two interchain and one intrachain disulfide bonds, positions not given here
B4: hRLX2-Fc-TMΔTHTΔK_15-24AA (Fc fusion)
chain: QLYSALANKCCHVGCTKRSLARFCGGGGSGGGGSGGGGSSWMEEVIKLCGRELVRAQIAICGMSTWSAAAGGGGSGGGGSGGGGSGGGGSACPPCPAPEFEGGPSVFLFPPKPKDTLMISRTPEVTCVVVDVSHEDPEVKFNWYVDGVEVHNAKTKPREEQYNSTYRVVSVLTVLHQDWLNGKEYKCKVSNKALPASIEKTISKAKGQPREPQVYTLPPSREEMTKNQVSLTCLVKGFYPSDIAVEWESNGQPENNYKTTPPVLDSDGSFFLYSKLTVDKSRWQQGNVFSCSVMHEALHNHYTQKSLSLSPG
B5: Fc-TMΔTHTΔK_hRLX2_21-15AA (Fc fusion)
chain: GGGSACPPCPAPEFEGGPSVFLFPPKPKDTLMISRTPEVTCVVVDVSHEDPEVKFNWYVDGVEVHNAKTKPREEQYNSTYRVVSVLTVLHQDWLNGKEYKCKVSNKALPASIEKTISKAKGQPREPQVYTLPPSREEMTKNQVSLTCLVKGFYPSDIAVEWESNGQPENNYKTTPPVLDSDGSFFLYSKLTVDKSRWQQGNVFSCSVMHEALHNHYTQKSLSLSPGGGGGSGGGGSGGGGSGGGGGSQLYSALANKCCHVGCTKRSLARFCGGGGSGGGGSGGGGSSWMEEVIKLCGRELVRAQIAICGMSTWS
B6: hRLX2(BA)-Fc-TMΔTHTΔK_15-24AA (Fc fusion)
chain: SWMEEVIKLCGRELVRAQIAICGMSTWSGGGGSGGGGSGGGGSQLYSALANKCCHVGCTKRSLARFCAAAGGGGSGGGGSGGGGSGGGGSACPPCPAPEFEGGPSVFLFPPKPKDTLMISRTPEVTCVVVDVSHEDPEVKFNWYVDGVEVHNAKTKPREEQYNSTYRVVSVLTVLHQDWLNGKEYKCKVSNKALPASIEKTISKAKGQPREPQVYTLPPSREEMTKNQVSLTCLVKGFYPSDIAVEWESNGQPENNYKTTPPVLDSDGSFFLYSKLTVDKSRWQQGNVFSCSVMHEALHNHYTQKSLCLSPG
B7: Fc-TMΔTHTΔK_hRLX2(BA)_21-15AA (Fc fusion)
chain: GGGSACPPCPAPEFEGGPSVFLFPPKPKDTLMISRTPEVTCVVVDVSHEDPEVKFNWYVDGVEVHNAKTKPREEQYNSTYRVVSVLTVLHQDWLNGKEYKCKVSNKALPASIEKTISKAKGQPREPQVYTLPPSREEMTKNQVSLTCLVKGFYPSDIAVEWESNGQPENNYKTTPPVLDSDGSFFLYSKLTVDKSRWQQGNVFSCSVMHEALHNHYTQKSLSLSPGGGGGSGGGGSGGGGSGGGGGSSWMEEVIKLCGRELVRAQIAICGMSTWSGGGGSGGGGSGGGGSQLYSALANKCCHVGCTKRSLARFC

Target: T1, human RXFP1 receptor
Test: cell-based or functional assay

Binder | EC50 (M), stimulation of cAMP production (HitHunter cAMP assay) in CHO-K1 RXFP1 Gs cells [M]
B1 | 5.39e-09
B2 | 4.56e-09
B3 | 1.06e-10

Target: T1, human RXFP1 receptor
Test: cell-based or functional assay
Remark: another data set of the same source

Binder | hRXFP1 EC50 (M), cAMP HTRF assay in CHO-K1 RXFP1 Gs cells [M]
B4 | 4.97e-09
B5 | 2.6e-09
B6 | 1.13e-09
B3 | 1.38e-10
B7 | 1.56e-08

Target: human RXFP2 (human, UniProt Q8WXD0 1-754)
Test: cell-based or functional assay

Chain of human RXFP2 (Q8WXD0 whole entry): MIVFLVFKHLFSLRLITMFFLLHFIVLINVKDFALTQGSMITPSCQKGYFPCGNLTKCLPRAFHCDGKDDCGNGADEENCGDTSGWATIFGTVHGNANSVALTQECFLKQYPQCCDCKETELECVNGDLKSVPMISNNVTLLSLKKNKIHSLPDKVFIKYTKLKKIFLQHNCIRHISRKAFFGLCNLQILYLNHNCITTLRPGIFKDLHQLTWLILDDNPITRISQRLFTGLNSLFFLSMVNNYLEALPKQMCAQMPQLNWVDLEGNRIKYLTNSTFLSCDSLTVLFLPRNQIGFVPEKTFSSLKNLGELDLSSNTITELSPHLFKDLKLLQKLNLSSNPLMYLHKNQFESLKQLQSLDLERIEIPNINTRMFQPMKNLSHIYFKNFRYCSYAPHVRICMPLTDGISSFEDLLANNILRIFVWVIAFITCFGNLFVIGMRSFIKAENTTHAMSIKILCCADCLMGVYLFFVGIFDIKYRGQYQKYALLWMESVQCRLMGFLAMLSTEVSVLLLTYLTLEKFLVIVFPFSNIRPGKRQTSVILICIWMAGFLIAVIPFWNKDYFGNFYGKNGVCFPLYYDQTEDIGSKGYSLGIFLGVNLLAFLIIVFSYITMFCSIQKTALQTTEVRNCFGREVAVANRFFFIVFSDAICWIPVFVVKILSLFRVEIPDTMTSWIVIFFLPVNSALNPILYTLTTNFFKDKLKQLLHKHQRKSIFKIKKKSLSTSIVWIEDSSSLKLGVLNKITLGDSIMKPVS

Binder | hRXFP2 EC50 (M), cAMP HTRF assay in CHO-K1 RXFP2 Gs cells [M]
B4 | > 3.09e-07
B5 | > 6.78e-06
B6 | > 4.33e-06
B3 | 1.46e-07
B7 | > 8.22e-06

Target: T2, mouse RXFP1 receptor
Test: cell-based or functional assay

Binder | mRXFP1 EC50 (M), cAMP HTRF assay in CHO-K1 mRXFP1 Gs cells [M]
B4 | 2.23e-09
B5 | 2.52e-09
B6 | 8.78e-10
B3 | 6.68e-11
B7 | 8.82e-09
